Laboratory results as given in US11111295B2, “Antibody for anti-claudin 18A2 and use thereof” (CAFA THERAPEUTICS LIMITED, priority 2016, dated 2021).
One block for each molecule: values may come before it.

Tests used:
human CLD18A2 [1] = target: T1, human CLD18A2 (Homo sapiens, UniProt P56856); experiment: Flow cytometry binding of hybridoma supernatants to HEK293 cells stably transfected with human CLD18A2; conditions: hybridoma supernatant; most of subclones after two rounds of subcloning; HEK293 transfectants
T1 construct: expressed in transfected cells
T1 sequence (P56856 1-261 isoform P56856-2): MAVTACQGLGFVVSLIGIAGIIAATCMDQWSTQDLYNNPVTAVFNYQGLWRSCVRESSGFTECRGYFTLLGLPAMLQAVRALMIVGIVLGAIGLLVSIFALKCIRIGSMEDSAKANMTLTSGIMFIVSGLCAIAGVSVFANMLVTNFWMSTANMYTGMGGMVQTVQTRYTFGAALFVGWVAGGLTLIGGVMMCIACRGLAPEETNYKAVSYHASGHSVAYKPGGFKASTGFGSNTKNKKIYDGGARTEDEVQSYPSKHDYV
Description: Individual cells were screened for anti-CLD18A2 monoclonal antibody by flow cytometry, and HEK293 cells (HEK-CLD18A2) stably expressing human CLD18A2 were used for primary screening by flow cytometry using a Guava easyCyte™ HT System instrument. The binding of the antibody to human CLD18A1 and CLD18A2 transformants was then compared by flow cytometry. The instrument used was the Guava easyCyte™ HT System.
After multiple rounds of preparation and screening of hybridomas, the inventors found several antibodies with relatively ideal binding properties.

human CLD18A2 [2] = target: T1, human CLD18A2; experiment: Flow cytometry binding of scFv_Fc fusion antibody to HEK293 cells stably transfected with human CLD18A2 (EC50); conditions: scFv fused to human IgG1 Fc portion, read-out: relative binding affinity EC50 value
Method: Binding of anti-Claudin 18A2 scFv_Fc fusion antibody to HEK293 cells stably transfected with CLD18A2 was determined by flow cytometry. Experimental data was analyzed using GraphPad Prism and Guava easyCyte™ HT System instrument as described in Example 1 to obtain EC50 value.
Expression vectors of ScFv Fc-form of the two mutants were constructed as described in Example 2, and according to the procedure of Example 2, and the experimental data was analyzed using GraphPad Prism and Guava easyCyte™ HT System instrument to obtain EC50.
The binding activity assay was performed as described in Example 2, and experimental data was analyzed using HEK293 cells (HEK-CLD18A2) stably expressing human CLD18A2, GraphPad Prism and Guava easyCyte™ HT System instrument to obtain EC50, and the results are shown in FIG. 5.
(5) The binding activity was tested, and experimental data was analyzed using HEK293 cells (HEK-CLD18A2) stably expressing human CLD18A2, GraphPad Prism and Guava easyCyte™ HT System instrument, and the results are shown in FIG. 6.
The mutant hu8E5-2I of the humanized antibody hu8E5 was constructed as described in Example 3. Experimental data was analyzed using HEK293 cells (HEK-CLD18A2) stably expressing human CLD18A2, GraphPad Prism and Guava easyCyte™ HT System instrument, and the results are shown in FIG. 7.

binding to human CLD18A2 (human CLD18A2 [1]): specifically bound to human CLD18A2
B1: 4A11: murine anti-CLD18A2 monoclonal antibody, VH SEQ ID NO:11, VL SEQ ID NO:9 (antibody, V domains shown)
VH: QIQLVQSGPELKKPGETVKISCKASGYTFTNYGMNWVKQAPGKGLKWMGWINTNTGEPTYAEEFKGRFAFSLETSASTAYLQINNLKNEDTATYFCARFSYGNSFAYWGQGTTVTVSS
VL: DIVMTQSPSSLSVSAGEKVTMSCKSSQSLLNSGNQKNYLAWYQQKPGQPPKLLIYGASTRESGVPDRFTGSGSGTDFTLTISSVQAEDLAVYYCQNDHSYPLTFGAGTKLELKR

binding to human CLD18A2 (human CLD18A2 [1]): specifically bound to human CLD18A2
EC50 (human CLD18A2 [2]): 49.2 nM
B2: 8E5: murine anti-CLD18A2 monoclonal antibody, VH SEQ ID NO:15, VL SEQ ID NO:13 (antibody, V domains shown)
VH: DVQLQESGPDLVKPSQSLSLTCTVTGYSITSGYNWHWIRQFPGNKMEWMGYIHYTGSTNYNPSLRSRISITRDTSKNQFFLQLNSVTTDDTATYYCTRIYNGNSFPYWGQGTSVTVSS
VL: DIVMTQSPSSLTVTPGEKVTMTCKSSQSLFNSGNQKNYLTWYQQRPGQPPKMLIYWASTRESGVPDRFTGSGSGTDFTLTISSVQAEDLAVFYCQNAYSFPYTFGGGTKLEIKR

binding to human CLD18A2 (human CLD18A2 [1]): specifically bound to human CLD18A2
B3: 3E12: murine anti-CLD18A2 monoclonal antibody, VH SEQ ID NO:7, VL SEQ ID NO:5 (antibody, V domains shown)
VH: QVQLQQSGPELVKPGALVKISCKASGYTFTSYDINWVKQRPGQGLEWIGWIYPGDGSTKYNEKFKGKATLTADKSSSTAYMQLSSLTSENSAVYFCARGGYRYDEAMDYWGQGTTVTVSS
VL: QIVLTQSPAIMSASPGEKVTMTCSASSSISYMHWYQQKPGTSPKRWIYDTSKLASGVPARFSGSGSGTSYSLTISSMEAEDAATYYCHQRSSYPYTFGGGTKLEIKR
